Data from publication PMC3197237.

Legend:
[1] = target: GST-AeIAP1 BIR2 (residues 188-278 of AeIAP1) (A. aegypti); experiment: pull-down
[2] = target: GST-AeIAP1 BIR1 (residues 24-118 of AeIAP1) (A. aegypti); experiment: pull-down

Substance | % of input bound [1] | % of input bound [2]
activated (cleaved) AeDronc: in vitro translated AeDronc partially processed by active recombinant AeDronc | 50.2 % of input | 79.9 % of input
in vitro translated full length AeDronc (enzyme) | 45.2 % of input | 70.9 % of input
